Assay results taken from publication PMC4595200, “In vitro analyses of mitochondrial ATP/phosphate carriers from Arabidopsis thaliana revealed unexpected Ca^2+-effects” (BMC Plant Biology, 2015).

What was measured:
[1] = substrate: Nc1ncnc2c1ncn2[C@@H]1O[C@H](COP(=O)(O)OP(=O)(O)O)[C@@H](O)[C@H]1O; test: radiolabelled uptake into proteoliposomes; format: biochemical, Arabidopsis thaliana; conditions: ADP import / ATP export (ATP-loaded, 5 mM), no added Ca2+ or Mg2+, pH 7.5, 30 °C, 2.5 min, labelled compound, apparent
[2] = substrate: Nc1ncnc2c1ncn2[C@@H]1O[C@H](COP(=O)(O)OP(=O)(O)OP(=O)(O)O)[C@@H](O)[C@H]1O; test: radiolabelled uptake into proteoliposomes; format: biochemical, Arabidopsis thaliana; conditions: ATP import / Pi export (Pi-loaded, 5 mM), no added Ca2+ or Mg2+ (traces ~9 μM each), pH 7.5, 30 °C, 2.5 min, labelled compound, apparent
purified protein [3] = substrate: Nc1ncnc2c1ncn2[C@@H]1O[C@H](COP(=O)(O)OP(=O)(O)O)[C@@H](O)[C@H]1O; test: purified protein; conditions: ADP import / ATP export (ATP-loaded, 5 mM), no added Ca2+ or Mg2+, pH 7.5, 30 °C, 2.5 min, labelled compound, apparent
purified protein [4] = substrate: Nc1ncnc2c1ncn2[C@@H]1O[C@H](COP(=O)(O)OP(=O)(O)OP(=O)(O)O)[C@@H](O)[C@H]1O; test: purified protein; conditions: ATP import / Pi export (Pi-loaded, 5 mM), no added Ca2+ or Mg2+ (traces ~9 μM each), pH 7.5, 30 °C, 2.5 min, labelled compound, apparent

B1: AtAPC3 (Arabidopsis thaliana) (protein)
chain: MESSKPKNRNPMKKPVSITMEHVLLALRETMDEREIRIRSLFDFFDNSNLGFLDYAQIEKGLASLQIPPEYKYARDLFRVCDANRDGRVDYQEFRRYIDAKELELYRIFQAIDVEHNGCILPEELWEALVKAGIEIDDEELARFVEHVDKDNNGTITFEEWRDFLLLYPHEATLENIYHHWERVCLIDIGEQAVIPDGISKHVKRSRLLLAGGLAGAVSRTATAPLDRLKVVLQVQRAHAGVLPTIKKIWREDKLMGFFRGNGLNVMKVAPESAIKFCAYEMLKPMIGGEDGDIGTSGRLMAGGMAGALAQTAIYPMDLVKTRLQTCVSEGGKAPKLWKLTKDIWVREGPRAFYKGLFPSLLGIVPYAGIDLAAYETLKDLSRTYILQDTEPGPLIQLSCGMTSGALGASCVYPLQVVRTRMQADSSKTTMKQEFMNTMKGEGLRGFYRGLLPNLLKVVPAASITYIVYEAMKKNMALD
B1 was tested. Which Km [1] did it give?
Its Km is 72 (±5) μM.

And the Vmax [1]?
The Vmax was 770 (±90) nmol mg protein^-1 h^-1.

What about the Km [2] of the same protein?
Its Km is 113 (±17) μM.

What about the Vmax [2] of the same protein?
Its Vmax is 282 (±20) nmol mg protein^-1 h^-1.

B2: AtAPC2 (Arabidopsis thaliana) (protein)
chain: MEATKSSKQNCCNPVKKPGPVSIDHVLLALRETREERDLRIRSLFSFFDSENVGYLDCAQIEKGLCALQIPSGYKYAKELFRVCDANRDGRVDYHEFRRYMDDKELELYRIFQAIDVEHNGCISPEGLWDSLVKAGIEIKDEELARFVEHVDKDNDGIIMFEEWRDFLLLYPHEATIENIYHHWERVCLVDIGEQAVIPEGISKHIKRSNYFIAGGIAGAASRTATAPLDRLKVLLQIQKTDARIREAIKLIWKQGGVRGFFRGNGLNIVKVAPESAIKFYAYELFKNAIGENMGEDKADIGTTVRLFAGGMAGAVAQASIYPLDLVKTRLQTYTSQAGVAVPRLGTLTKDILVHEGPRAFYKGLFPSLLGIIPYAGIDLAAYETLKDLSRTYILQDAEPGPLVQLGCGTISGALGATCVYPLQVVRTRMQAERARTSMSGVFRRTISEEGYRALYKGLLPNLLKVVPAASITYMVYEAMKKSLELD
Which Km [1] does the source give for B2 here?
Its Km is 374 (±40) μM.

And the Vmax [1]?
The Vmax was 778 (±82) nmol mg protein^-1 h^-1.

What about the Km [2] of the same protein?
The Km was 95 (±12) μM.

And the Vmax [2]?
The Vmax was 212 (±24) nmol mg protein^-1 h^-1.

B3: AtAPC1 (Arabidopsis thaliana) (protein)
chain: MEAEKSKQNPGKKPVEATMEHVLVALRETKEKREIRIQKLFEFFDNSKLGFLDDTQIEKGLSSLSIPPKYRYASDFLKVCDSNRDGRVDYQEFRRYMDAKELELYKIFQAIDIEHNGDICPAELWEALDKAGIKIKDEELASFMEHVDKDNNGIITFEEWRDFLLLNPHEATIENIYHHWERVCLIDIGEQAVIPDGISAHAQRSKLLLAGGIAGAVSRTATAPLDRLKVALQVQRTNLGVVPTIKKIWREDKLLGFFRGNGLNVAKVAPESAIKFAAYEMLKPIIGGADGDIGTSGRLLAGGLAGAVAQTAIYPMDLVKTRLQTFVSEVGTPKLWKLTKDIWIQEGPRAFYRGLCPSLIGIIPYAGIDLAAYETLKDLSRAHFLHDTAEPGPLIQLGCGMTSGALGASCVYPLQVIRTRMQADSSKTSMGQEFLKTLRGEGLKGFYRGIFPNFFKVIPSASISYLVYEAMKKNLALD
How did the Km (purified protein [3]) turn out when B3 was run?
Its Km is 180 (±15) μM.

What about the Vmax (purified protein [3]) of the same protein?
Its Vmax is 2078 (±315) nmol mg protein^-1 h^-1.

And the Km (purified protein [4])?
Its Km is 68 (6) μM.

And the Vmax (purified protein [4])?
The Vmax was 201(±14) nmol mg protein^-1 h^-1.
